Key:
[1] = biological target: CD163 on human cells (human) (UniProt Q86VB7); assay: flow cytometry with quantification beads, CD14+ monocytes in human whole blood, n=3 donors
[2] = biological target: CD163 on human cells (human) (UniProt Q86VB7); assay: flow cytometry with quantification beads, CD14+ monocytes of human PBMC, n=5 donors (one outlier donor)
[3] = biological target: T1, human VISTA on cells (human) (UniProt Q9H7M9); assay: flow cytometry, AF488-labelled control antibody on human monocytes, MFI normalised to INX200 at 0 min
T1 sequence: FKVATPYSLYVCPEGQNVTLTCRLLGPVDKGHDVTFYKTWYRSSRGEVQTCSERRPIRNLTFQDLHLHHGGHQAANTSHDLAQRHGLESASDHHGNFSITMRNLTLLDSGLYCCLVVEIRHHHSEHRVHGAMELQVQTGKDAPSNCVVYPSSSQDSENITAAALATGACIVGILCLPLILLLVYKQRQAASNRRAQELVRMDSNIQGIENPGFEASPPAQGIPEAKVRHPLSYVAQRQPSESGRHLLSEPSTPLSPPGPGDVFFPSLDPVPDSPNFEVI

Sequence of CD163 on human cells (human) (Q86VB7 42-1156): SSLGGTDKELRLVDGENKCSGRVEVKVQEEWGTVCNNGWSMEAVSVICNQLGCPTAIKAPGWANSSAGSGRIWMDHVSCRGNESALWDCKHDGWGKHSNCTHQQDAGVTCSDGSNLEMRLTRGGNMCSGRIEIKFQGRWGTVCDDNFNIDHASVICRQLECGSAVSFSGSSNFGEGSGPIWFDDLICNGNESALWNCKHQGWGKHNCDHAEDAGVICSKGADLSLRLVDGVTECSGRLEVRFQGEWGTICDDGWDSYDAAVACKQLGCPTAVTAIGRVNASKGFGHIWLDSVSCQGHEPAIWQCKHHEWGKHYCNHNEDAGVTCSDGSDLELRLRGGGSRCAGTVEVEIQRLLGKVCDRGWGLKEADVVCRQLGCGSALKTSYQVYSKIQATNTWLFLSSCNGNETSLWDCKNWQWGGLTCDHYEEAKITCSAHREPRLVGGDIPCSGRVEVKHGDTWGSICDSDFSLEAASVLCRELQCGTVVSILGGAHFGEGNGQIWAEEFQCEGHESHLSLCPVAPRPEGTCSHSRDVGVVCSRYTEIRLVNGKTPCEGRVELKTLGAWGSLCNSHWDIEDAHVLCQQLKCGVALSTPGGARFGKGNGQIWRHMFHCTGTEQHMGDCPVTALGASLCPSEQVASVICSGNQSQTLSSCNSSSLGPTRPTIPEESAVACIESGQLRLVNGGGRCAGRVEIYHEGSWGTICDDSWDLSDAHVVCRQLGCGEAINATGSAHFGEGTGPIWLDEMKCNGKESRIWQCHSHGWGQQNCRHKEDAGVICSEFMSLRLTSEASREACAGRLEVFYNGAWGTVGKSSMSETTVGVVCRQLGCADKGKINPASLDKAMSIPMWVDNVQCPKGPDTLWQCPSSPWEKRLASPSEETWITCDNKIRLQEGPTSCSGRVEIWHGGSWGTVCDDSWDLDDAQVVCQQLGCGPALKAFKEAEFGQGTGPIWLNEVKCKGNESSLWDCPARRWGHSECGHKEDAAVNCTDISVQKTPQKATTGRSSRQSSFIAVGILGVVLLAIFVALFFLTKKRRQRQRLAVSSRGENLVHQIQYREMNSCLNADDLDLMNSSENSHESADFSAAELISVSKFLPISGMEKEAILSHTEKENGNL

| antibody binding capacity (ABC) [1] [molecules] | antibody binding capacity (ABC) (ABC (molecules per cell)) [2] | nonspecific signal at 0 min relative to INX200 (% of MFI) [3] [%] | Substance |
| --- | --- | --- | --- |
| 13100 | 36700 | – | CD163 Alexa Fluor 647 clone GHI/61 (antibody) |
| – | – | 5.9 | Human IgG1si (antibody) |
